Source: IntAct's records for PubMed 14669021

B1: Protein ORD (Drosophila melanogaster (Fruit fly)), Q24434 (parent)
chain: MYGETTLNKNHVIKFIKLKINNCLGCDEVEINFSKADNVHIIIYSLVTDMAKDLPAVTPVAQAILLLCSLTYPDSDSLETIPQLKIGKGSVSMSFKVYPVNKEEETEPESESDLDEGPSTSKQALERMVQRAERKAKEASTRNVHSKGIYVNVERRFDMYFALDTVSYYINGGKRQSCPLPEFHAKFFVRPQHSINLLRQLHEKCSGNWLKVIQSDGDGDAFKKFKDPDSPFETFVKLFESNPIKPNDMMGKLAKTCLHVNEAVRLTEREFILEVFNQVRHIFEYITAQEYTVWFLVPCLGDKDQLRSKTLEDFDLTKVRTSIRRAGDTSNIWWDHTDHNIKDILLVAFQLDLATHVNQSVLVISHLETLAEFSTMQYVTAFFMNDFYAKKNTEPKWICHRYLERIIDVALFLGVIVIIEYPSAFTLLQEGRHLIKCFQKENADSSRTSQWEIFEDVVKENESDLEFLKEAVGKVQQNV
partner: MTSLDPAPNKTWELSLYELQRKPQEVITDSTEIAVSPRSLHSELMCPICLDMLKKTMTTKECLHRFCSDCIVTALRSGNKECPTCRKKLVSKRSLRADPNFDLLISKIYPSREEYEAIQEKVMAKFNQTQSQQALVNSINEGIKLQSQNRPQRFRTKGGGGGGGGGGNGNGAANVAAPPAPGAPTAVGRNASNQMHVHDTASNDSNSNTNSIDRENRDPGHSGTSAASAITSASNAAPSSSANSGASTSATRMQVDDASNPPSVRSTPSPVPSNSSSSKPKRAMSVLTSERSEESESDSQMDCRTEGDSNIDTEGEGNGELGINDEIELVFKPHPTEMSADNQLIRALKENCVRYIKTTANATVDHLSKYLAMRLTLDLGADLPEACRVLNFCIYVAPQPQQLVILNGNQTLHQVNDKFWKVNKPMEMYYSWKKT

Variants of: B1
Settings: with ring1_drome Sce

Variant	effect of a mutation on the interaction
MYGETTLNKNHVIKFIKLKINNCLGCDEVEINFSKADNVHIIIYSLVTDMAKDLPAVTPVAQAILLLCSLTYPDSDSLETIPQLKIGKGSVSMSFKVYPVNKEEETEPESESDLDEGPSTSKQALERMVQRAERKAKEASTRNVHSKGIYVNVERRFDMYFALDTVSYYINGGKRQSCPLPEFHAKFFVRPQHSINLLRQLHEKCSGNWLKVIQSDGDGDAFKKFKDPDSPFETFVKLFESNPIKPNDMMGKLAKTCLHVNEAVRLTEREFILEVFNQVRHIFEYITAQEYTVWFLVPCLGDKDQLRSKTLEDFDLTKVRTSIRRAGDTSNIWWDHTDHNIKDILLVAFQLDLATHVNQSVLVISHLETLAEFSTMQYVTAFFMNDFYAKKNTEPKWICHRYLERIIDVALFLGVIDIIEYPSAFTLLQEGRHLIKCFQKENADSSRTSQWEIFEDVVKENESDLEFLKEAVGKVQQNV [V417D]	decreasing interaction
